Reference: US20130058955A1

How the values were obtained:
[1] = molecular target: K63-linked diubiquitin (Boston Biochem) (human) (UniProt P0CG48); assay: western blot, IgG 1 µg/mL, two-fold dilutions of K63-linked diubiquitin 1 µg to 16 ng
[2] = molecular target: K48 polyubiquitin linkages in 293T cell lysates (human) (UniProt P0CG48); assay: IP from lysate of 293T cells over-expressing LUBAC, 7 M urea, mass spec AQUA; input 12420 pmol
[3] = molecular target: K11 polyubiquitin linkages in 293T cell lysates (human) (UniProt P0CG48); assay: IP from 293T lysate (empty vector), 7 M urea, mass spec AQUA; input 1085 pmol

Substance: Apu3.A8 anti-K63 IgG (antibody)
- limit of detection [1]: 62 ng

Substance: isotype control IgG (unrelated human kappa IgG1 antibody)
- pmol of ubiquitin linkage in the immunoprecipitate [2]: 1 pmol
- pmol of ubiquitin linkage in the immunoprecipitate [3]: 0 pmol
